According to patent US5928931A, “Isolation, purification and cloning of retinol dehydratase” (Cornell Research Foundation, Inc., priority 1997, dated 1999):

T1: retinol dehydratase (Spodoptera frugiperda, UniProt Q26490)
T1 sequence (Q26490 1-351): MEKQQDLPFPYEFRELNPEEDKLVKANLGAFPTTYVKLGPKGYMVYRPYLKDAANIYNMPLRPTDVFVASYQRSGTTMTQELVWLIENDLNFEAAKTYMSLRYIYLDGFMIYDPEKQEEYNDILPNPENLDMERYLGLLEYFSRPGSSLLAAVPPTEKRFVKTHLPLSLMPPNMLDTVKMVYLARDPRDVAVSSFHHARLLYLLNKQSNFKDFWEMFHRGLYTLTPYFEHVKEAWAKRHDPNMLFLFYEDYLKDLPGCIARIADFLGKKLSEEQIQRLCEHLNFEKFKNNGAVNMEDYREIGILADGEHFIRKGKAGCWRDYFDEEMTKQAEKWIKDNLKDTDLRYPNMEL

B1: Recombinant retinol dehydratase: 352 amino acid, 41.5 kDa enzyme of Sf-21 cells, expressed in bacteria with HisTag, SEQ. ID. No. 2 (protein)
chain: MEKQQDLPFPYEFRELNPEDKLVKANLGAFPTTYVKLGPKGYMVYRPYLKDAANIYNMPLRPTDVFVASYQRSGTTMTQELVWLIENDLNFEAAKTYMSLRYIYLDGFMIYDPEKQEEYNDILPNPENLDMERYLGLLEYFSRPGSSLLAAVPPTEKRFVKTHLPLSLMPPNMLDTVKMVYLARDPRDVAVSSFHHARLLYLLNKQSNFKDFWEMFHRGLYTLTPYFEHVKEAWAKRHDPNMLFLFYEDYLKDLPGCIARIADFLGKKLSEEQIQRLCEHLNFEKFKNNGAVNMEDYREIGILADGEHFIRKGKAGCWRDYFDEEMTKQAEKWIKDNLKDTDLRYPNMEL
modifications: His tag
B2: EGF: epidermal growth factor, purchased (protein, UniProt P01133 23-1207, looked up)
Pro-epidermal growth factor: PQHWSCPEGTLAGNGNSTCVGPAPFLIFSHGNSIFRIDTEGTNYEQLVVDAGVSVIMDFHYNEKRIYWVDLERQLLQRVFLNGSRQERVCNIEKNVSGMAINWINEEVIWSNQQEGIITVTDMKGNNSHILLSALKYPANVAVDPVERFIFWSSEVAGSLYRADLDGVGVKALLETSEKITAVSLDVLDKRLFWIQYNREGSNSLICSCDYDGGSVHISKHPTQHNLFAMSLFGDRIFYSTWKMKTIWIANKHTGKDMVRINLHSSFVPLGELKVVHPLAQPKAEDDTWEPEQKLCKLRKGNCSSTVCGQDLQSHLCMCAEGYALSRDRKYCEDVNECAFWNHGCTLGCKNTPGSYYCTCPVGFVLLPDGKRCHQLVSCPRNVSECSHDCVLTSEGPLCFCPEGSVLERDGKTCSGCSSPDNGGCSQLCVPLSPVSWECDCFPGYDLQLDEKSCAASGPQPFLLFANSQDIRHMHFDGTDYGTLLSQQMGMVYALDHDPVENKIYFAHTALKWIERANMDGSQRERLIEEGVDVPEGLAVDWIGRRFYWTDRGKSLIGRSDLNGKRSKIITKENISQPRGIAVHPMAKRLFWTDTGINPRIESSSLQGLGRLVIASSDLIWPSGITIDFLTDKLYWCDAKQSVIEMANLDGSKRRRLTQNDVGHPFAVAVFEDYVWFSDWAMPSVMRVNKRTGKDRVRLQGSMLKPSSLVVVHPLAKPGADPCLYQNGGCEHICKKRLGTAWCSCREGFMKASDGKTCLALDGHQLLAGGEVDLKNQVTPLDILSKTRVSEDNITESQHMLVAEIMVSDQDDCAPVGCSMYARCISEGEDATCQCLKGFAGDGKLCSDIDECEMGVPVCPPASSKCINTEGGYVCRCSEGYQGDGIHCLDIDECQLGEHSCGENASCTNTEGGYTCMCAGRLSEPGLICPDSTPPPHLREDDHHYSVRNSDSECPLSHDGYCLHDGVCMYIEALDKYACNCVVGYIGERCQYRDLKWWELRHAGHGQQQKVIVVAVCVVVLVMLLLLSLWGAHYYRTQKLLSKNPKNPYEESSRDVRSRRPADTEDGMSSCPQPWFVVIKEHQDLKNGGQPVAGEDGQAADGSMQPTSWRQEPQLCGMGTEQGCWIPVSSDKGSCPQVMERSFHMPSYGTQTLEGGVEKPHSLLSANPLWQQRALDPPHQMELTQ
modifications: Pro-epidermal growth factor
notes: epidermal growth factor, purchased

Legend:
retinol dehydratase [1] = biological target: T1, retinol dehydratase; assay: Fluorimetric titration of recombinant retinol dehydratase with retinol (direct binding, no cofactor); details: recombinant enzyme; for number of (high affinity) binding sites per molecule: retinol titration
Method: Binding was monitored by following the fluorescence enhancement of retinol (excitation--330 nm; emission--480 nm, open circles). The fluorescence contribution of free retinol was determined by titration with retinol in the absence of protein (open squares), analyzed by linear regression analysis (dashed line) and subtracted from the titration data to give the corrected titration binding curve (closed circles). The data were fitted (solid line) using an equation derived from simple binding theory.
Retinol is an efficient fluorophore and its interactions with proteins are often accompanied by a marked increase in its fluorescence. This phenomenon reflects movement of retinol from the aqueous solution to a less polar and more restrictive environment within a protein binding site, and has been extensively used to monitor the binding of retinol to binding proteins, as described by Cogan et al., Eur. J. Biochem., 65:71-75 (1976); Ong et al., J. Biol Chem., 253:828-32 (1978); and Noy et al., Biochemistry, 30:6380-86 (1991), which are hereby incorporated by reference.
Recombinant retinol dehydratase (lμM) was titrated with retinol from a concentrated solution in ethanol (final ethanol concentration <2.0%). Binding was monitored by following the fluorescence enhancement of retinol (excitation--330 nm; emission--480 nm, open circles). The fluorescence contribution of free retinol was determined by titration with retinol in the absence of protein (FIG. 5B, open squares), analysed by linear regression analysis (FIG. 5B, dashed line) and subtracted from the titration data to give the corrected titration binding curve (FIG. 5B, closed circles). The data were fitted (FIG. 5B, solid line) using an equation derived from simple binding theory as described in Norris et al., Biochim Bioshys Acta, 1209:10-8 (1994), which is hereby incorporated by reference, to yield the number of binding sites (8%) and the equilibrium dissociation constant (Kd =9 nM).
The derived Kd should thus be considered an upper limit for the actual value. Nevertheless, it agreed with the Km, confirming retinol dehydratase has a high affinity binding site for free retinol.

retinol dehydratase [2] = biological target: T1, retinol dehydratase; assay: Retinol dehydratase assay ([3H]-retinol to [3H]-AR, HPLC radiomatic detection); kinetic studies; assay type: biochemical; details: bacterially expressed recombinant enzyme
Method: 20-50 μl aliquots of supernatant/column fractions were incubated with 1 μCi of [^3 H]-retinol and 20 μl of high speed supernatant from sonicated Sf-9 cells in 200 μl assay buffer (20 mM Tris.Cl pH 7.5, 150 mM NaCl, I mM MgCI2) for 15-60 minutes at 24° C. […] Samples were delipidated and [^3 H]-AR production quantified by a liquid scintillation radiomatic detector in series with HPLC gradient elution (20 mM Tris pH 7.4/methanol/chloroform) from a C-18 Reverse Phase 201TP54 column (Vydac, Separations Group, Hesperia, Calif.) as described by McClean et al., Clin. Chem., 28:693-96 (1982) and Derguini et al., Angew. Che. Int. Ed. Engl., 33:1839-41 (1994), which are hereby incorporated by reference.
Kinetic studies were performed with native retinol dehydratase (0.1 μg/assay) and ^3 H-retinol in the presence of constant substrate carrier protein concentrations, either delipidated BSA or recombinant cellular retinol binding protein ("CRBP"). The initial rate of AR synthesis at different substrate concentrations was determined by radiomatic detection of ^3 H-AR after HPLC separation.
Carrier protein for retinol (delipidated bovine serum albumin or recombinant human CRBP) was added to reduce nonspecific binding and micelle formation.

NIH 3T3 cells = assay: Activation of resting serum-starved NIH 3T3 cells ([3H]thymidine incorporation); assay type: cell-based
Method: FIGS. 6A and 6B show the activation of resting NIH 3T3 cells. In FIG. 6(a), one to four day serum-starved cells activated by serum, retinol, 14-HRR, and the peptide growth factors epidermal growth factor ("EGF") and platelet derived growth factor ("PDGF") are shown. […] NIH 3T3 cells were grown to confluence in Dulbecco's minimal essential medium ("DMEM") containing 10% fetal calf serum in 96-well microliter plates. All media were supplemented with 2 mM glutamine and 100 U/ml of penicillin/streptomycin. Cells were washed once with phosphate-buffered saline solution and incubated for one to four days in 200 μl/well of DMEM media/0.1% fetal calf serum ("starvation media"). On the indicated day, starvation media was replaced with 200 μl/well of insulin, transferrin, linoleic acid, bovine serum albumin ("ITLB") media, with or without fetal calf serum, retinoids, or peptide growth factors at the indicated concentrations. ITLB media is RPMI media (Gibco BRL, Grand Island, N.Y.) containing […] bovine serum albumin (1.2 mg/ml), linoleic acid (10^-6 M), bovine insulin (5 μg/ml), and transferrin (5 μg/ml). [^3 H]thymidine (1.2 μCi per well) was added at the beginning of the experiment, and the thymidine incorporation was determined after 24 h. […]
Cells starved for 4 days in DMEM/0.1% fetal calf serum were activated with 5% fetal calf serum, 2 μM retinol, or 2 μM 14-HRR, and the cumulative thymidine incorporation was determined at the indicated time points. Δcpm corresponds to the increase in [^3 H]thymidine incorporation in the two hour period before the time point shown. […]
Cells starved for 4 days in DMEM/0.1% fetal calf serum were activated with 5% fetal calf serum, 2 μM retinol, or 2 μM 14-HRR. […] The cumulative [^3 H]thymidine incorporation was determined after 24 hours. […]
Confluent NIH 3T3 cells were starved for 1 to 4 days in medium containing 0.1% serum. […] Activation was quantitated by measuring the [^3 H] thymidine incorporated into newly synthesized DNA during the subsequent 24 hours (FIG. 6A). […]

Molecule	range of binding sites (retinol dehydratase [1]; n=3)	number of (high affinity) binding sites per molecule (retinol dehydratase [1]) [%]	number of (high affinity) binding sites per molecule (retinol dehydratase [1]; listed as recombinant enzyme) [%]	binding sites (retinol dehydratase [1]; titration curves, n=3)	Vmax as compared to the native enzyme purified from Sf-21 (retinol dehydratase [2]) [%]	activation of growth arrested cells (thymidine incorporation over 24 hours) (NIH 3T3 cells; cells deprived of serum for 3 or 4 days)	entry of treated cells into the S phase (NIH 3T3 cells; data not shown)	activation of resting cells (NIH 3T3 cells; ≤500 ng/ml)
B1	0.06-0.08	8	7	0.07	10			
B2						had no effect	did not enter the S phase	unable to activate
